This passage reports FRNT50 (focus reduction neutralization on Vero cells) results from patent US20210054055A1.

For this experiment, the target named is Dengue virus serotype 4 (DENV4) virions, envelope protein E (Dengue virus 4).

B1: Anti-ZIKV clone DT168(A)-D1_G-9E (G9E) (antibody, V domains shown)
VH: EVQLVESGGGVVQPGRSLRLSCVASGFAFSNYHMHWVRQAPGKGLEWVAIIWDDGSDQYYADSVKGRFTISRDNSKNTLFLQMNRLRAEDTALYYCVGGSSAYNGDNGWREAASLDDWGQGTLVTVSS
VL: QSALTQPASVSGSPGQSITIFCSGSSNDVGGYNYVSWYQQYPGKVPKLLIYDVNSRPSGVSNRFSGSKSGNTASLTISGLQAEDEADYYCSSYTSRRTWVFGGGTIVTVL
Regarding B1, the FRNT50 (focus reduction neutralization on Vero cells) was over 10000 ng/mL.

B2: Anti-ZIKV clone DT168(A)-D1_A-9E (A9E) (antibody, V domains shown)
VH: EVQLLESGGGLVQAGGSLRLSCAASGFTFDTYAMSWVRQPPGKGLEWVSAISTGGGSKYYADSVKGRLTISRDNSQNTLYLQMSSLRADDTAVYYCARSDFWRSGRYYYYMDVWGRGTTVTVSS
VL: QSALTQPASVSASPGQSITISCTGTHFDIVDYDYLSWYQQHPGNAPKLLIYGVSNRPSGVSSRFSGSKSGNTASLTISGLQAEDEGDYYCSSYSISSTLLVFGGGTKLSV
As for B2, the FRNT50 (focus reduction neutralization on Vero cells) was over 10000 ng/mL.
